Laboratory results taken from patent US20180119166A1.

Target: 6x-histidine-fused LOS4 (LOS4-His) (Arabidopsis) (UniProt Q93ZG7)
Experiment: cell-based or functional assay

6x-histidine-fused LOS4 (LOS4-His) (Arabidopsis), sequence (Q93ZG7 other isoform, or with tags, fused parts or gaps limits assumed): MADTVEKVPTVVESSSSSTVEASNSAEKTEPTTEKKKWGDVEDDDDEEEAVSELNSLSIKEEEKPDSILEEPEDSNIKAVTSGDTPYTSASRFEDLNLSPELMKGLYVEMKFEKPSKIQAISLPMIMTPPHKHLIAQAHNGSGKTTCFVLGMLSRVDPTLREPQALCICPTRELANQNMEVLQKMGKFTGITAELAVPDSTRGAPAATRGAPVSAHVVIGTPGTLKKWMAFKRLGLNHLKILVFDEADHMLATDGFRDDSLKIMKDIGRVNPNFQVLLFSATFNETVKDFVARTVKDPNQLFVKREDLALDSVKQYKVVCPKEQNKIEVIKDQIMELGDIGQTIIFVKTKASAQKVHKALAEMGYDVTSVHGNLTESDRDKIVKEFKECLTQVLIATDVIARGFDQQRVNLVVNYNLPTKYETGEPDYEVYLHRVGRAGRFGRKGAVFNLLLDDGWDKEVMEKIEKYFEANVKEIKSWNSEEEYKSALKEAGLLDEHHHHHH

Row | fold decrease in LOS4-stimulating activity against MBP-Gle1C, absence of InsP6 [fold] | LOS4 ATPase activity with RNA (LOS4-His and MBP-Gle1C at a ratio of 1:2) [fold] | Substance
1 | > 2 |  | MBP-Gle1C (ID) (from UniProt Q0WPZ7 244-611)
2 |  | 3 | MBP fusion protein of the carboxyl-terminal domain of Gle1 (MBP-Gle1C; amino acid residues 244-611) (from UniProt Q0WPZ7 244-611)
